Measurements taken from patent US20090298167A1 (Pfizer, published 2009).
Numbering of substitutions follows the chain as printed.

B1: AbW (antibody, human IgG1, V domains shown)
VH: QVQLQESGPGLVKPSETLSLTCAVSGYSISSGYYWGWIRQPPGKGLEWIGSISHTGNTYYNPPLKSRVTISVDTSKNQFSLKLSSVTAADTAVYYCARFMGFGRPEYWGQGTLVTVSS
VL: SSELTQDPAVSVALGQTVRITCQGDSLRTYYASWYQQKPGQAPVLVIYGKHKRPSGIPDRFSGSSSGNTASLTITGAQAEDEADYYCVTRSVKGNPHVLFGGGTQLTVL
B2: AbV (antibody, human IgG1, V domains shown)
VH: B1 VH
VL: B1 VL with T89A, K93V
B3: scFv L21 (scFv)
scFv: QVQLQESGPGLVKTSETLSLTCAVSGYSISSGYYWGWIRQPPGKGLEWIGSISHTGNTYYNPPLKSRVTISVDTSKNQFSLKLSSVTAADTAVYYCARGGGISRPEYWGKGTLVTVSSGGGGSGGGGSGGGGSALSSELTQDPPVSVALGQTVTLTCQGDSLRTYYASWYQQKSGQAPILLLYGKHKRPSGIPDRFSGSTSGDTASLTITGAQAEDEADYYCATRAVRGNPHVLFGGGTQLTVL
B4: scFv L24 (scFv)
scFv: B3 scFv with A223I, T224A, A226S, V227N, R228K
B5: scFv L25 (scFv)
scFv: B3 scFv with A223T, A226S, V227N, R228K
B6: AbA (antibody, human IgG1, V domains shown)
VH: B1 VH with F99G, M100G, F102I, G103S
VL: B1 VL with T89A, K93V
notes: Full-length human IgG1 / human lambda, transient, conditioned medium; Framework limits derived; also called VHP/VL2
B7: AbE (antibody, human IgG1, V domains shown)
VH: B1 VH with F99G, M100G, F102I, G103S
VL: B1 VL with V88M, T89A, V92R
notes: Full-length human IgG1 / human lambda, transient, conditioned medium; Framework limits derived; also called VHP/VL14
B8: AbF (antibody, human IgG1, V domains shown)
VH: B1 VH with F99G, M100G, F102I, G103S
VL: B1 VL with V88S, V92R
notes: Full-length human IgG1 / human lambda, transient, conditioned medium; Framework limits derived; also called VHP/VL17
B9: AbH (antibody, human IgG1, V domains shown)
VH: B1 VH with F99G, M100G, F102I, G103S
VL: B1 VL with T89A, S91A, K93R
notes: Full-length human IgG1 / human lambda, transient, conditioned medium; Framework limits derived; also called VHP/VL19
B10: AbK (antibody, human IgG1, V domains shown)
VH: B1 VH
VL: B1 VL with T89S, S91A, K93V
notes: Full-length human IgG1 / human lambda, transient, conditioned medium; Framework limits derived; also called VH3/VL3
B11: AbI (antibody, human IgG1, V domains shown)
VH: B1 VH with F99G, M100G, F102I, G103S
VL: B1 VL with V88I, T89A, V92N
notes: Full-length human IgG1 / human lambda, transient, conditioned medium; Framework limits derived; also called VHP/VL24
B12: AbJ (antibody, human IgG1, V domains shown)
VH: B1 VH
VL: B1 VL with V88N, T89S, S91D, V92S, K93S
notes: Full-length human IgG1 / human lambda, transient, conditioned medium; Framework limits derived; also called VH3/VLP
B13: AbB (antibody, human IgG1, V domains shown)
VH: B1 VH with F99G, M100G, F102I, G103S
VL: B1 VL with T89S, S91A, K93V
notes: Full-length human IgG1 / human lambda, transient, conditioned medium; Framework limits derived; also called VHP/VL3
B14: AbC (antibody, human IgG1, V domains shown)
VH: B1 VH with F99G, M100G, F102I, G103S
VL: B1 VL with V88S, T89S, V92R, K93H
notes: Full-length human IgG1 / human lambda, transient, conditioned medium; Framework limits derived; also called VHP/VL11
B15: AbN (antibody, human IgG1, V domains shown)
VH: B1 VH with M100F
VL: B1 VL with V88I, T89A, V92N
notes: Full-length human IgG1 / human lambda, transient, conditioned medium; Framework limits derived; also called VH6/VL24
B16: AbM (antibody, human IgG1, V domains shown)
VH: B1 VH with M100F
VL: B1 VL with S91N, V92R, K93Y
notes: Full-length human IgG1 / human lambda, transient, conditioned medium; Framework limits derived; also called VH6/VL13

molecular target: rat IL-21R expressed on cells (rat); experiment: cell-based or functional assay

Binder	IC50 (nM) experiment 1, rat T cell proliferation [nM]	IC50 (nM) experiment 2, rat T cell proliferation [nM]
B1	159	94.7
B2	70.5	59.2

molecular target: T1, murine IL-21R expressed on cells (murine, UniProt Q9JHX3 20-529); experiment: cell-based or functional assay
T1 sequence (Q9JHX3 20-529 limits assumed): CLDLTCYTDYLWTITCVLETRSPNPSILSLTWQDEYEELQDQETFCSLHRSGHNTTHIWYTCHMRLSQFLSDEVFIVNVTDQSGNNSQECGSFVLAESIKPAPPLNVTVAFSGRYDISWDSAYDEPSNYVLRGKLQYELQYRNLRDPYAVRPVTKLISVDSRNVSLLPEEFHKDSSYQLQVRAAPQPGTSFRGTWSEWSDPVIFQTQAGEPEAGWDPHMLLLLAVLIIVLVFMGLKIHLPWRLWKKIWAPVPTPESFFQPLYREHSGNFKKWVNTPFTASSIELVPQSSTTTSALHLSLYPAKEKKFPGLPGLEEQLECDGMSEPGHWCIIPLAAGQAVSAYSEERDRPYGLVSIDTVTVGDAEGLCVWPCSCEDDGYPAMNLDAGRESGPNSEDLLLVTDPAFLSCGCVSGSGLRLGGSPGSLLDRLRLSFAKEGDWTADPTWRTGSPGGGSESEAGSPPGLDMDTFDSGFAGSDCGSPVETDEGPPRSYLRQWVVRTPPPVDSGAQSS

Binder	IC50 (nM) in Murine IL-21R-BaF3 Neutralization Assay [nM]
B3	162
B4	3.73
B5	15.6

molecular target: T2, human IL-21R expressed on cells (human, UniProt Q9HBE5 20-538); experiment: cell-based or functional assay
T2 sequence (Q9HBE5 20-538 limits assumed): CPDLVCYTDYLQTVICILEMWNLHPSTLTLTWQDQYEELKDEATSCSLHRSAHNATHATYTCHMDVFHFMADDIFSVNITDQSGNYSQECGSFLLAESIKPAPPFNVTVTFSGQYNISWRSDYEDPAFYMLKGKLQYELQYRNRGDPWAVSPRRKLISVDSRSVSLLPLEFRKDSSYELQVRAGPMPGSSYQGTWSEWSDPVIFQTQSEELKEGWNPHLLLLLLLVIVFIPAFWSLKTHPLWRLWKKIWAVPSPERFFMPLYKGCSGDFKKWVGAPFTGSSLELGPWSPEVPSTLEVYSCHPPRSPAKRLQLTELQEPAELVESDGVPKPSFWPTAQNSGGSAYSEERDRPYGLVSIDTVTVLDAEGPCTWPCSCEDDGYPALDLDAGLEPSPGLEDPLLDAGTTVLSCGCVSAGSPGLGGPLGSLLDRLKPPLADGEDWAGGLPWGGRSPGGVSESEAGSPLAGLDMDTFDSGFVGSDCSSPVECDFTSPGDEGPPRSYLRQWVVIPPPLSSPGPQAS

Binder	IC50 (nM) in Human IL-21R-BaF3 Neutralization Assay [nM]	IC50 (nM) in Human IL-21R-TF1 Neutralization Assay [nM]
B3	9.4	~100
B4	2.4	18.7
B5	3.7	33.1

molecular target: T3, rat IL-21R expressed on cells (rat); experiment: cell ELISA on transfected CHO cells, 13 nM IgG
T3 construct: whole, on cells; Transiently transfected CHO-PA-Dukx cells
Procedure: (§1) A subset of binding proteins was tested for binding to rat, cynomolgus monkey, human IL-21R, or human IL-2R-γ common subunit expressed transiently on the surfaces of CHO-PA-Dukx cells. Cells were transfected 48 hr prior to the assay. On the day of the assay, cells were washed gently 5× in PBS containing 0.9 mM CaCl₂ and 0.45 mM MgCl₂ (PBS/CaMg) on an automated plate washer (Titertek, Huntsville, Ala.), and blocked for 1 hr at RT in PBS/CaMg/5% nonfat dry milk. Conditioned media from transiently expressed anti-IL-21R IgGs were serially diluted in blocking buffer and added to the cells in the blocked plates for 1 hr at RT. Cells were washed 5× with PBS/CaMg and then incubated with horseradish peroxidase-conjugated anti-human IgG for 1 hr at RT. Cells were then washed 10× in PBS/CaMg and all of the wash buffer was removed. Cells were incubated with 100 μl TMB until the color reaction reached saturation, stopped with 100 μl of 0.18 M H₂SO₄, and read at A450 on a Perkin Elmer ENVISION™ plate reader.

Binder	A450 at 13 nM Ab in cell ELISA [A450]
B6	1.12
B7	1.11
B8	1
B9	1.1
B10	1.18
B11	1.09
B12	1.26
B13	1.09
B14	0.999
B15	0.702
B16	0.78

molecular target: T4, cynomolgus monkey IL-21R expressed on CHO cells (cynomolgus monkey); experiment: cell ELISA on transfected CHO cells, 13 nM IgG
T4 construct: whole, on cells
Procedure: as §1

Binder	A450 at 13 nM Ab in cell ELISA [A450]
B6	1.35
B7	1.42
B8	1.46
B9	1.32
B10	1.34
B11	1.21
B12	1.27
B13	1.33
B14	1.28
B15	1.5
B16	1.45

molecular target: T2, human IL-21R expressed on cells; experiment: cell ELISA on transfected CHO cells, 13 nM IgG
Procedure: as §1

Binder	A450 at 13 nM Ab in cell ELISA [A450]
B6	1.2
B7	1.26
B8	1.35
B9	1.35
B10	1.36
B11	1.24
B12	1.22
B13	1.15
B14	1.22
B15	1.21
B16	1.2

molecular target: T5, human gamma common chain expressed on CHO cells (human, UniProt P31785 23-369); experiment: cell ELISA on transfected CHO cells, 13 nM IgG
T5 construct: whole, on cells; Control protein; also called human IL-2R-γ common subunit; human gamma (γ) common chain
T5 sequence (looked up): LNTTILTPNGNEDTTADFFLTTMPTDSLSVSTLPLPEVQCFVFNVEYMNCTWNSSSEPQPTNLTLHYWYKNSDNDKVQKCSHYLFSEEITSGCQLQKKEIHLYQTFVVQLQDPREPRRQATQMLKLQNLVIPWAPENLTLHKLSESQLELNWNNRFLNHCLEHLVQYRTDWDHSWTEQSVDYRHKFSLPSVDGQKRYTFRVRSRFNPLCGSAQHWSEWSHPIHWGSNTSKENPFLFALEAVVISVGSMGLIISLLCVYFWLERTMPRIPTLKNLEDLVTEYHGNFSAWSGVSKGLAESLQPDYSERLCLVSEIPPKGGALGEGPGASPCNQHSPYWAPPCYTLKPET
Procedure: as §1

Binder	A450 at 13 nM Ab in cell ELISA [A450]
B6	0.111
B10	0.108
B11	0.107
B12	0.126
B13	0.107
B14	0.137
B15	0.136

molecular target: T1, murine IL-21R expressed on cells; experiment: cell-based or functional assay; remark: another data set of the same source

Binder	Murine IL-21R-BaF3 Proliferation IC50 [nM]
B6	0.08
B7	0.04
B8	0.304
B9	0.327
B10	0.079
B11	0.224
B12	0.4
B13	0.421
B14	0.03
B15	0.435
B16	0.125

molecular target: T2, human IL-21R expressed on cells; experiment: cell-based or functional assay; remark: another data set of the same source

Binder	Human IL-21R-BaF3 Proliferation IC50 [nM]	Human IL-21R-TF1 Proliferation IC50 [nM]
B6	0.97	3.8
B7	0.56	2.28
B8	0.54	2.41
B9	0.94	3.64
B10	0.98	4
B11	1	3.8
B12	0.65	4.6
B13	1.14	3.34
B14	0.82	3.36
B15	0.5	1.59
B16	1.08	4.22
